Where “and” joins values, the source holds several entries; their conditions need not be identical. Equal entries are not always repeated.
Key:
[1] = tested on: PC-3 cells; assay: [^3H]-Thymidine uptake assay; type: cell-based, human; conditions: for ^3[H]-Thymidine Uptake (% of control): 72 hours
Protocol: The in vitro growth inhibition effect of rHuPSP94 was assessed using [^3H]-Thymidine uptake assay. [^3H]-Thymidine uptake assay involves [^3H]-Thymidine incorporation into cellular DNA of actively proliferating cells. It measures the proliferative index of the cells versus the MTS assay, which quantifies the number of lived cells following treatment. Cells were seeded in Costar 96 well cell culture flat bottom plates in RPMI supplemented media containing 50 μg/ml of bovine serum albumin (BSA) and 0.1 μM FeSO4. PC-3 cells were exposed to various concentrations of rHuPSP94 for 72 hours and during the final 16 hours of incubation cells were pulsed with 1 μCi of [^3H]-Thymidine. The radioactivity in each well of the plate is counted by a beta-counter and is expressed as total counts per minutes (cpm). Results of in vitro effect of rHuPSP94 on PC-3 cells using the ^3[H]-Thymidine uptake assay are summarized in Table 3 and are expressed as percentage of radioactivity measured for treated-cells relative to the radioactivity measured for non-treated cells (for which [^3H]-thymidine uptake value was set at 100%).
[^3H]-Thymidine uptake assay involves [^3H]-Thymidine incorporation into cellular DNA of actively proliferating cells. [^3H]-Thymidine uptake assay measures the proliferative index of the cells versus the MTS assay, which quantifies the number of lived cells following treatment. The anti-proliferative effects of PCK3145 and two other synthetic polypeptides derived from the amino and carboxy terminus ends of PSP94 (SEQ ID NO: 4 and NO: 6, respectively) as well as the decapeptide (SEQ ID NO: 3) previously shown to mimic the biological action of native PSP94 were assessed in [H3]-Thymidine uptake assay on PC-3 cells. Two separate experiments were conducted with GMP-grade PCK3145.

[2] = tested on: Mat Ly Lu (MLL) tumor; assay: Study MLL-1, Mat LyLu tumor implanted in nude mice; type: in vivo; conditions: 1 μg/kg/day s.c.; p=0.042
Protocol: (§1) Studies MLL-1 and MLL-2 were performed as follows; on day 0, male Copenhagen rats were injected subcutaneously with 5×10^5 Mat LyLu cells per rat. These cells were derived from cultures of Mat LyLu cell line grown in RPMI media containing 10% (v/v) of fetal calf serum in logarithmic phase of growth. Cells were harvested from the culture flasks by trypsinization, were centrifuged at 1200 rotation per minute (rpm) and washed three timed with Hanks balanced salt solution (HBSS). Following washing, cells were counted and adjusted to a concentration of 5×10^6 cells/ml in HBSS. A 0.1 ml volume of tumor cell inoculum containing 5×10^5 cells was administered subcutaneously into the flank region of each rat. Three days after tumor cell implantation (i.e., inoculation), animals were treated daily by a subcutaneous injection of the desired polypeptide until day 13.
Experiments illustrated in FIG. 12 show the anti-tumor efficacy validation of rHuPSP94 against Mat LyLu (MLL) tumor implanted in nude mice (Protocol based on S. Garde et al.; The Prostate, 22: 225-233, 1993).
For study MLL-1 (FIG. 12), tumor-implanted nude mice were separated in different groups, each receiving various amount of rHuPSP94 or control reagents. The different groups used in these experiments are illustrated below. Each group contained 8 mice.

[3] = tested on: human prostate cancer cells PC-3; assay: MTS assay, growth inhibitory effect on PC-3 cells; type: cell-based; conditions: for % Viability (control = 100%): 72 hours
Text: Cell proliferation was monitored on PC-3 cells using the MTS/PMS (phenazine methosulfate) kit (Promega), which primarily measures mitochondrial activity of live cells. The basic principle of this method involves the fact that the mitochondrial enzymes of the live cells metabolize the MTS/PMS dyes forming a brown colored precipitate which can be measured as optical density (OD) by absorption at 490 nm in a spectrophotometer. Therefore, the OD values are proportional to the number of living cells. In addition, monitoring of cell morphology was also performed. Cell morphology would be indicative of their health status. For example, viable cells would appear adherent and spread out whereas dead cells would be in suspension in the media and would appear granular and round.
PC-3 cells (ATCC, Lot AT06) used in these experiments were at a passage number lower or equal to 70 (n≧70). Cells were seeded in Costar 96 well cell culture flat bottom plates in RPMI supplemented media containing 50 μg/ml of bovine serum albumin (BSA) and 0.1 μM FeSO4. Peptide was diluted in the same media. Cells were continuously exposed to the polypeptides of the present invention for 72 hours without changing media. Native PSP94 or rHuPSP94 concentrated two fold were directly added to wells and diluted to 1× in order to minimize cell manipulation and avoid detachment.
Native PSP94, rHuPSP94, polypeptide 22-36 and PB111 polypeptide (scrambled polypeptide) were also included in this experiment as controls. Cell proliferation assay was performed on either PC-3 cells or normal fibroblasts (used here as control) using the MTS/PMS kit (Promega). Four thousand cells (FIGS. 9 and 10) or three thousand (FIG. 11) cells were seeded in Costar 96 well cell culture flat bottom plates in RPMI supplemented media containing 50 μg/ml of bovine serum albumin (BSA) and 0.1 μM FeSO4. In addition, monitoring of cell morphology was also performed.
This assay measures the mitochondrial activity of the live cells. The basic principle of this method involves the fact that the mitochondrial enzymes of the live cells metabolize the MTS/PMS dyes forming a brown colored precipitate which can be measured as optical density (OD) by absorption at 490 nm in a spectrophotometer. Therefore, the OD values are proportional to the number of living cells.
In addition, a visual observation of the cells was also done to check the cell morphology, which could also be indicative of cell growth. The following conditions for MTS assay were used: PC-3 (ATCC, Lot AT06), passage number n≧70, cell line adapted to grow in serum-free OPTI-MEM and in RPMI supplemented with BSA (50 μg/ml) and Ferrous Sulfate (0.1 μM), continuous exposure for up to 72 hours without changing media (i.e., adding PCK3145 at 2× concentration directly to wells and diluting it 1:2 to 1× to minimize cell manipulation and avoid detachment).

[4] = tested on: PC-3 human prostate tumor; assay: PC-3 human prostate tumor in nude mice, subcutaneous treatment for 14 days (Examples 10 and 11); type: in vivo, Nude mouse; conditions: 1 μg/kg body weight per day s.c.
Protocol: PC-3 human prostate tumor was obtained from ATCC (ATCC 1435). PC-3 cells were grown in RPMI media containing 10% (v/v) of fetal calf serum and were harvested in the logarithmic phase of growth by trypsinization. Cells were centrifuged at 1200 rotation per minute (rpm) and washed three timed with Hanks balanced salt solution (HBSS). Following washing, cells were counted and adjusted to a concentration of 1×10^7 cells/ml in HBSS. A 0.1 ml volume of tumor cell inoculum containing 1×10^6 cells was administered subcutaneously into the two opposite flank region of each Nude mouse (Nu/Nu, BALE/c background). Tumor growth was monitored for approximately 18 days. Once tumor growth has been established (volume of tumor reached a volume of 50 mm^3) treatment with rHuPSP94 (SEQ ID NO: 2) was initiated and was performed once a day for 14 days by the subcutaneous route. Based on the assigned treatment groups illustrated in table 4.
PC-3 human prostate tumor (ATCC 1435) obtained from ATCC was implanted bilaterally into nude mice and tumor growth was monitored for approximately 18 days. PC-3 cells were injected once subcutaneously into each flank of the mice. Once tumor growth has been established (i.e., volume of tumor reached 0.25 to 0.50 cm^3) the treatment with decapeptide (SEQ ID NO: 3), native PSP94 (SEQ ID NO: 1) and control scrambled polypeptide PB111 was initiated and was performed once a day for 14 days by the subcutaneous route based on the treatment groups (randomly assigned) illustrated in table 5.

[5] = tested on: Mat Ly Lu (MLL) tumor; assay: Study MLL-2, Mat Ly Lu tumor implanted in SCID mice; type: in vivo; conditions: 1 μg/kg/day s.c.; p=0.010
Protocol: as §1
Experiments illustrated in study MLL-2 show the anti-tumor efficacy validation of rHuPSP94 against Mat Ly Lu (MLL) tumor implanted in severe combined immunodeficiency (SCID) mice (Protocol based on S. Garde et al.; The Prostate, 22: 225-233, 1993).
For study MLL-2 (FIG. 13), tumor-implanted Scid mice were separated in different groups each receiving various amounts of rHuPSP94 or control reagents. The different groups used in these experiments are illustrated below. Each group contained 8 mice.

[6] = tested on: tumor cells; conditions: exogenous PSP94, in vivo and in vitro; cited from earlier work
[7] = tested on: follicle-stimulating hormone (FSH); conditions: in-vitro and in-vivo in adult male rats; cited from earlier work
[8] = tested on: PC-3 cells; assay: DNA fragmentation assay (DNA ladder, apoptosis); type: cell-based, human
Protocol: Cell apoptosis result in DNA fragmentation can be evaluated by the presence of a DNA ladder visualized when DNA is run on a 1.2% agarose gel. DNA ladder assay (apoptosis assay) was performed following exposure of PC-3 to various concentrations of the polypeptides for 72 hours. The polypeptides that were used in this particular experiment are polypeptide 7-21 (SEQ ID NO: 4), polypeptide PCK3145 (SEQ ID NO: 5) and polypeptide 76-94 (SEQ ID NO: 6). […] This effect was especially evident following treatment with PCK3145 (SEQ ID NO: 5), which is illustrated by FIG. 7. Lane 1 of the gel illustrated in FIG. 7 represents a lambda HindIII digest standard.
Apoptosis of PC-3 cells, following a 72 hours exposure to PCK3145 at 500 μg/ml concentration, was evaluated in supplemented media by DNA fragmentation assay. Doxorubicin was used as a reference positive control. Untreated cells and PCK3145-treated cells were harvested and the DNA was isolated. Isolated DNA was run on a 1.2% agarose gel containing Ethidium Bromide (EtBr). […] Lane 1 of the gel illustrated in FIG. 25 represents the DNA marker (100 base pair DNA ladder). Lane 2 of the gel illustrated in FIG. 25 represents a control of untreated PC-3 cells.

B1: rHuPSP94: recombinant human PSP94 expressed in yeast (Pichia pastoris), non-glycosylated, 10 cysteine residues, SEQ ID NO: 2 (protein)
chain: EAEAYVEFSCYFIPNEGVPGDSTRKCMDLKGNKHPINSEWQTDNCETCTCYETEISCCTLVSTPVGYDKDNCQRIFKKEDCKYIVVEKKDPKKTCSVSEWII
modifications: recombinant human PSP94 (rHuPSP94) produced from yeast
[1]; 5 μg/ml
  ^3[H]-Thymidine Uptake (% of control): 94 % of control
[1]; 10 μg/ml
  ^3[H]-Thymidine Uptake (% of control): 101 % of control
[1]; 20 μg/ml
  ^3[H]-Thymidine Uptake (% of control): 98 % of control
[1]; 40 μg/ml
  ^3[H]-Thymidine Uptake (% of control): 79 % of control
[1]; 80 μg/ml for 72 hrs, compared to non-treated control
  reduction in the percentage of cells incorporating [^3H]-thymidine: 65%
[1]; 80 μg/ml
  ^3[H]-Thymidine Uptake (% of control): 35 % of control
[2]
  tumor weight reduction: 26%
[3]; 5 μg/ml
  % Viability (control = 100%): 98% and 92% and 89%
[3]; 10 μg/ml
  % Viability (control = 100%): 84% and 95% and 69%
[3]; 20 μg/ml
  % Viability (control = 100%): 78% and 80% and 79%
[3]; 40 μg/ml
  % Viability (control = 100%): 100% and 70% and 71% and 68% and 72% and 63% and 95%
[3]; 60 μg/ml
  % Viability (control = 100%): 98% and 78% and 63% and 85% and 52%
[3]; 80 μg/ml
  reduction in cell numbers (i.e., viability): 37% and 35%
  % Viability (control = 100%): 90% and 55% and 59% and 58% and 63% and 78% and 62%
[3]; 120 μg/ml
  reduction in cell numbers (i.e., viability): 57%
  % Viability (control = 100%): 52% and 43% and 68% and 60%
[4]
  tumor growth (tumor volume): tumor growth reduction
  tumor growth reduction compared with Doxorubicin (5 mg/kg/day): reduction was similar to that observed for Doxorubicin
[5]
  tumor weight reduction: 65%

B2: native PSP94: Prostate Secretory Protein of 94 amino acids, native human seminal plasma protein, SEQ ID NO: 1 (protein)
chain: SCYFIPNEGVPGDSTRKCMDLKGNKHPINSEWQTDNCETCTCYETEISCCTLVSTPVGYDKDNCQRIFKKEDCKYIVVEKKDPKKTCSVSEWII
[6]
  effect on tumor cell growth: inhibitory effect
[1]; 5 μg/ml
  ^3[H]-Thymidine Uptake (% of control): 97 % of control
[1]; 10 μg/ml
  ^3[H]-Thymidine Uptake (% of control): 98 % of control
[1]; 20 μg/ml
  ^3[H]-Thymidine Uptake (% of control): 100 % of control
[1]; 40 μg/ml
  ^3[H]-Thymidine Uptake (% of control): 98 % of control
[1]; 80 μg/ml
  ^3[H]-Thymidine Uptake (% of control): 77 % of control
[1]; 72 hours exposure (FIG. 24)
  reduction in the [H3]-Thymidine uptake: ~50%
[7]
  secretion of circulating FSH: suppress secretion of
[8]; 20 μg
  DNA laddering effect (FIG. 7 lane 4): DNA laddering effect
[8]; 40 μg
  DNA laddering effect (FIG. 7 lane 3): DNA laddering effect

Source: US8551951B2, “Pharmaceutical preparations and methods for inhibiting tumors” (Aenorasis SA Pharmaceuticals and Medical Devices, priority 2000, dated 2013)
